{"source": "patent US20040001839A1", "about": "“Multimers - isolated molecules comprising epitopes containing sulfated moieties, antibodies to such epitopes, and uses thereof” (priority 2000, published 2004)", "key": {"Jurkat cells": {"tested_on": "Jurkat cells", "test": "FACS binding to Jurkat cells (IgG-Y1, scFv-Y1, diabodies, triabodies)", "parameters": "species or system human", "settings": "1 μg scFv-Y1 versus 5 ng IgG-Y1, two-step staining", "method": "Binding experiments were performed to determine the level of binding of the IgG-Y1 molecule compared to the binding level of the scFv-Y1 molecule. A two-step staining procedure was employed, wherein 5 ng of IgG-Y1 were reacted with both RAJI cells (negative control, FIG. 44) and Jurkat cells (Y1 positive cells, FIG. 44). For detection, PE-labeled goat anti-human IgG was used. Similarly, 1 μg of scFv-Y1 was reacted with Jurkat cells (FIG. 44), and PE-labeled rabbit anti-scFv was used for detection.\nFACS analysis was performed on Jurkat cells using a “three step staining procedure.” First, crude extracts or purified unlabeled scFv are stained, then mouse anti-myc antibodies, and finally, FITC- or PE-conjugated anti-mouse antibodies. FACS analysis requires 5-8×10^5 cells, which have been Ficoll-purified and resuspended in PBS+1% BSA. Binding was carried out for 1 hour at 4° C. After each step, cells were washed and resuspended in PBS+1% BSA. After the final staining step, cells were fixed by re-suspending in PBS, 1% BSA, 2% formaldehyde, and then read by FACS (Becton-Dickinson).\nThe binding of Y1-scFv was compared to that of diabodies and triabodies."}, "Glycocalicin (GC)": {"target": "T1, Glycocalicin (GC) (Homo sapiens, UniProt P07359)", "T1 construct": "glycocalicin (soluble, extracellular fragment of GPIbα); from tissue; host or cells: human platelets", "test": "Western blot with Y1 on SDS-PAGE reducing gels, glycocalicin after enzyme treatment", "type": "binding", "settings": "O-Sialo glycoprotein endopeptidase, 30′ at 37° C.", "from_the_text": "Y1 ligand was further characterized using enzymatic treatments with proteases, glycanases, and […]; Western blotting with Y1, anti-CD42 antibodies, anti-CD162 antibodies and 181, immunoprecipitation using Y1 and anti-CD162 antibodies; FACS analysis using Y1 anti-CD162 antibodies; and sequencing.\nThe table below summarizes the biochemical experiments preformed to characterize and localize the Y1 binding site on KG-1 cells.\nThe nitrocellulose membrane was blocked using 5% skim milk for one hour at room temperature. The membrane was then washed 3 times for 5 minutes each with 0.05% Tween 20 in PBS at room temperature. The membrane was incubated with 5 μg/ml Y1-biotin (or 181-biotin) in 2% skim milk in PBS for one hour at room temperature. The membrane was then washed 3 times for 5 minutes each with cold 0.05% Tween 20 in PBS in the cold room (about 4 to about 10° C.). The membrane was then incubated in the cold room with a 1:1000 dilution of SAV-HRP (streptavidin-HRP) (at a final concentration of […]) in 2% skim milk, 0.05% Tween. The dilution was carried out at room temperature (about 25° C.), then the diluted SAV-HRP was cooled on ice for 10-15 minutes before use. The incubation was carried out for 1 hour with gentle shaking. After the incubation with SAV-HRP, the membrane was washed, as above. […]"}, "[1]": {"tested_on": "platelet-rich-plasma (PRP)", "test": "Ristocetin-induced aggregation of platelet-rich plasma (scFv)", "type": "cell-based, human", "settings": "scFv 25 μg/ml, 100% = ristocetin treatment", "method": "The effect of Y1 (scFv) on aggregation of platelet-rich-plasma (PRP) was tested at various concentrations of Y1. PRP was pre-incubated with Y1 scFv, Y17 scFv, or a control sTM-1cFv for 4 min at 37° C. before being exposed to ristocetin, an inducer of platelet agglutination and aggregation. A reversible inhibitory effect was observed when scFv was added to PRP prior to the addition of ristocetin, and it was dose dependent.\nBlood was collected into a tube containing 3.8% sodium citrate. Platelet-rich plasma was prepared by centrifugation at 250×g for 10 minutes.\nFor platelet aggregation studies, platelet rich plasma (PRP) and washed platelets were stirred at 500 rpm at 37° C. in whole blood Lumiaggregometer (Chronolog, Havertown, Pa.). The difference in light transmission through the platelet suspension and suspending medium was taken as 100% aggregation. The effect of Y1 on platelet aggregation was evaluated by addition of different concentration of Y1 before the addition of agonist, and the effect was recorded for four minutes."}}}
{"molecule": "Y1 scFv: fully human scFv clone binding platelets and AML cells; SEQ ID NO:25, heavy chain CDR3 SEQ ID NO:8 (protein, listed as Homo sapiens) scFv: MKYLLPTAAAGLLLLAAQPAMAEVQLVESGGGVVRPGGSLRLSCAASGFTFDDYGMSWVRQAPGKGLEWVSGINWNGGSTGYADSVKGRFTISRDNAKNSLYLQMNSLRAEDTAVYYCARMRAPVIWGQGTLVTVSRGGGGSGGGGSGGGGSSELTQDPAVSVALGQTVRITCQGDSLRSYYASWYQQKPGQAPVLVIYGKNNRPSGIPDRFSGSSSGNTASLTITGAQAEDEADYYCNSRDSSGNHVVFGGGTKLTVLGAAAEQKLISEEDLNGAA", "values": [{"measurement": "more molecules needed for a level of detection similar to IgG-Y1", "setting": "Jurkat cells", "value": "approximately 10^3 fold"}, {"measurement": "Reactivity with Y1", "setting": "Glycocalicin (GC)", "value": "Enhanced"}, {"measurement": "% aggregation", "setting": "[1]", "value": 87, "unit": "%"}]}
